In US20040265325A1:
“And” between values parts separate entries of the source, which are not always exact repeats. Equal values may be shown once.

Target: CD8+ T cells (T cell receptors) of CMV-seropositive human donors
Test: flow cytometry, tetramer staining of CD8+ cells; background that was subtracted

Question: “HIV pol464-472 control tetramer (from UniProt P61769 21-119) (peptide-MHC)” was tested. Which CD8+ binding percentages to control tetramer did it give?
Answer: Its CD8+ binding percentages to control tetramer is 0.07% and 0.1%.
